A short description of the series: label from the status in PepcDB records.
With “MRGKILIFLHAHLPYVHHPEYDHFLEERWLFEAITETYIPLLMMFDEIEDFRLTMSITPPLMEMLSSRDLQEKYERHMEKLIELANKEVERTKKEHPLKHKMAKFYREHFEKILNVFRSYDGNILEGFKKYQETGKLEIVTCNATHAFLPLYQMYPEVVNAQITVGVKNYAKHMTLHPRGIWLAECGYYQGLDLYLAQNNVEYFFVDSHAFWFADEQPRYGVYRPIMTPSGVFAFARDPESSEQVWSAAVGYPGDPRYREFYRDIGFDREMEYIKDYIDPSGVRINTGIKYHRITSKSLDASQKEYYDIDLAMEAVEEHARDFLHKKESQARRLMDIMGVEPVIVAPFDAELFGHWWFEGVFFLKRFFELVNESKDLKLVTASEVIDTLEEVQIATPADSSWGAGGYYETWLNGTNDWIYRHLHEMIERMIDLSKKYYNSSDPLVERVLNQMLRELFLAQSSDWAFIMTTRTSVQYAENRTKLHIKRFLNLYDQLVSGRIDEEMLRYYEWTDAIFPEINFRVMARDVI”, the protein production result is reported as “not failed”.
As for “MSDIAVRPIRAEDVPQACAILNRIIEIGGTTAFEQPVSEDEFDAWYVNGADLICCHVALDAAGAVAGFQWLGRNDSLPEGCGDIASFTRREPVLRGAGRALFACTVAVARDRGLAEINATIRADNALGLAYYGKMGFRDHVVTPAVPLRDGRPVDRISKRFDLRG”, the entry is “failed”.
“MKVSSKLLSITNHHEYLDLVTDGAKFRIYLLDENIIRIRGTFDDDFAPEESYALVKTAWADATDDLIGDERQRVTPIAVELTETADGYTVSNGRYTLEIHAEPFYFEIKDQNGVTVHKDLVKRSFVQDDLGRRFHYSAMGDHDKFYGFGEKSGKLNKFKRRMRMHNTDSLGWNAAKSDPLYKMIPFYIDFNTTTNIASGLYYNNTHDSVFDMDCEHSNYWLRYSYFQCDGGDLDVFFIGGPTIKQVVEHYTDLTGKSAMMPLPSLGYMGSTMFYTELDQDADQAILDFIDTCKKNGIPCDGFFLSSGYTSGKDGKRYVFNWNKKRFPDPQKFVAELKKRGALLAPNIKPGMLVTHPLADEFMEKDAYIKTPDGQGSQVDQYWGGDAHFVDFTNPHGRDAWEQKMTEALLSIGITSIWNDNNEYEINDTQAVVDAEGQKSTIGALKPIMPTMMAKAAKDAINRYDATVRPYLVNRAGFAGIQRYAQTWAGDNYTSWTNVKYNIPTILGMGLSGVANQGCDIGGFDGPLPEPELFVRWVQNGIFQPRFSIHSCNNDNTVTEPWTYPAYTKYIRAAIQLRYSLVPYLYSLLYEASTKGSPIMRPLVYEFQDDPQVAEESFEFMLGASLLVANVVDKGQTAKSVYLPAGVDWLDLKTSQYYTGGQTITIPVDLGSIPMFLKAGSIVPQSKGLMNLHNDVIDKLDVLIEPSRDAEFVVYEDDGVTNNYRQGETLETTIKTTATADGVVIDFSRVGQYQTQVKTMALAVCCPKIAPLSVDLADQSLPRYLNAAKFADAAEGWYFDGESRQVQIKYANPEVAGYAVKVNFSVKDLISI”: the protein production result is given as “failed”.
As to “MTNLISGSSYPTANLYFMQVWKIECWLRAHEFSVDETICQMVEIMTLKFEKYWEEYSDILAIAAVFDPRLKLKCLEYCFSTLDRLTSKSRLAHVRSKIYKLFKAYKKRPSSITSSSQVETLEEDIPAGYSGFYAFVSQKVGSSGKSELDIYLGEPTLDMAAFRHFNVLAYWKDNSCRFKELSSMACDVLSIPITTVASESSFSIGSGVLSKYRSSLLPENIQALICTRNWLRGFPKEGEEEEVEEEKEEEKEEEKEEA”, the protein production entry is given as “failed”.
As for “MTTVIVGAGRIGSSVIELAADANIGVTVIEQEHERAHEFKADENCHVIHDDATERETLHEAEVGNADAIIATTDQDTTNLMVLMLARELGCETLVSVVHAEENIPLFRQLGATIIENPQRLIAEYLFRGTHDPGIQGFMHVGDRDGGAEVFEISVADGAPIIGKTLEQADVAGFLPPSMVVVAVERDGEIIIPRGNTQIETDDLVTVFSKEGIINEVVEPFKPEAKRTGDSDTE”, the entry is “failed”; as for “KIERDKAERAKKYGGSVGSQPPPVAPEPGPVPSSPSQEPPTKREYDQCRIQVRLPDGTSLTQTFRAREQLAAVRLYVELHRGEELGGGQDPVQLLSGFPRRAFSEADMERPLQELGLVPSAVLIVAKKC”, “failed”; as for “MQTIIYQIAPNDWVTDEVLMASTGLKPGTILRARKKAWFVGREYKHMTLDGKPKANGECLYHLPTINRWIRNMPDPDVDLLEHHHHHH”, “not failed”.
The value for “QIAELPYAMRINNSFEARKSPHAFVNLLNYILLEKSGADIACTALFDSANGFDEKITMRDIINNYPFPNTFKVIELSGKDIKLAIERSASYFDIVNHKITVNKEFLEPKPQHFNYDIFAGIQYTIHVSHPYGERVSDLLINDAPIQSDQIYTICVNNYRAVGGGNYDMYVNKPVIKDIQIEGAQLLIDYLSHNDLSQIPQVIDFNVVK” was “failed”.
As for “MWNYQKNILVCMIAGLGLSTCTPSDVSIPGAATIDVMNGFPDGESGYALGVSGCYAGKLGDFLLMAGGCNFPDKPVSEGGIKHYYKGIYIARVDDSSSLRWVKAGELPMEAAYGATVSLPDRLIFIGGSNSSDRFSSVLSFSFDCMKDSGLICETLPPLPHAVDNMSATLLGDTLYVLGGNRNGIPSSSMFSLCLDNYSAGWTEVPFPGRPRVQPVCSSLLGKLYVFGGFTSGGDASVSTDGLCYHPESGQWQVVKAPLTTKGEPLTLTGGASVSYGDVLLICAGGVNRDIFEDAISARYQMVRESEYLLQPIEWYRFNDQLLAYNVRSGEWIRIGVPSPMLARAGSSLVVFGDILFYIGGELKPGVRTPGICRISLQK”, the entry is “failed”; as for “MNSIQIADETYVAADAARVSAAVADRCSWRRWWPDLRLQVTEDRADKGIRWTVTGALTGTMEIWLEPSMDGVLLHYFLHAEPTGVAAWQLARMNLARMTHHRRVAGKKMAFEVKTVLERSRPIGVSPVT”, “failed”.
In the case of “MQPLLRTAGFSLLLLAASCGVGAQPEPQNSRLTAIKMDGELPARAAIAGLFAELDFQQATQSYLWALPLVSYAQWQGEFRDKLHAGNGDLMVLESYEDKLGVITANATTPYILGFVDLNQTGPMVVELPPGPTAGGVGDFWQRAITDMGQTGPDQGKGGKYLVLPPGHPEPSDADQYYLAKSQTMNVLVGFRVLDPDPAKGKALVQQFKMYPYAQRATPPATRLLSPGGKPWSGTQPRGMAYWERLHQIIQQEPVNERDRFYMAMLASLGIEKDKPFNPNEHQRQALEQGARMGELIAQANTFAKRFADAQYWPDRQWDKVLNIADPSQRVAYYDQLWERSAWFYEAVTNTKGMVSKTPGLGQTYLGAYTDHNGQWLDGGKHYRLHLGSNPPARQFWSLTVYDSASRCLIDNPQRKADLSSRQDLKKNPDGSLDLYFGPSAPKGLESNWVQTLPGKHWFSYFRLYAPTEAYFDKRWKLDDITLVQ”, the protein production result is reported as “failed”.
The value for “MGHHHHHHSHSKKPYIVTIACTKGGSAKSTNAANIGAFCADHGLRTLLIDTDTQPTLSSYYSLAKTAPGGIYEFLLQRDVEPSHIVSQTSIKNLDLIQSNDPSNNVSHMLRNAPDGSIRFSHLIKSINNYDVIVIDTRGTRDITVDMSVLAADILFCPILPQILSAKEFIRGTIGMYQDLQTFESFGFKLPPLKAIANGVDNTNDVKFVMQKLHTLFANTFDESKTLLDFSIPYHVAYREAVTYALPVYRHSAVEYPVMQQLCC” was “failed”; that for “MLDNKDIATPSRTRALLDKYGFNFKKSLGQNFLIDVNIINNIIDASDIDAQTGVIEIGPGMGSLTEQLARHAKRVLAFEIDQRLIPVLNDTLSPYDNVTVINEDILKANIKEAVENHLQDCEKIMVVANLPYYITTPILLNLMQQDIPIDGYVVMMQKEVGERLNAEVGSKAYGSLSIVVQYYTETSKVLTVPKSVFMPPPNVDSIVVKLMQRTEPLVTVDNEEAFFKLAKAAFAQRRKTINNNYQNYFKDGKQHKEVILQWLEQAGIDPRRRGETLSIQDFAKLYEEKKKFPQLEN” was “failed”.
For “MSAKIKIIPFGGVRENGKNMYAVDVNGGIYILDCGLKYPENELLGIDVVIPDWTYLRENKDRIVAVFLTHGHADAIGALPYFLSEFNVPVFGSEMTIALAKINVADEPKIKKFDDFHVIDEKTEIDFGDVVVSFFSTTHSIPESLGIDLKTDEGQIIYTGDFKFDQTAKPGYQTDYARLGAIGQAGVLALLSDSANAENPAMNASEQSLAESIEETFHYRDSRVIVACVASNILRIQQVFDAAAKTGRKVCLTGKDLEKIVNTAMELGKLTFDADLLVTTDQLDDLAPNEIVILQTGKMGEPIKAIQRMANKQEKDFNIQAGDLVYITTTPSHAMDTTVAQTRDMVYRAGGEVKAISDELNSSGHAYKRDLQLMLNLMKPKFLIPIQGEYRLLNAHADAAMELGIPADHIFILSKGDVLTYAQGDMGLGEGIDVSDTMIDGIGVGDIGNIVLRDRKVLADDGIFIAVVTIDRKKKQIVADPKITSRGFVYVKANKDLMQESSQIIRKAVQNNLDNKEFDWGHLKQDVREHLSHYLFEQTHRRPVILPVIMEVNQHHRRTTKEKPGAGATNEKPVTKSAPKAKAEQTAKPTHKPRRNRKRRPTKKTTTDNA”, the protein production result is listed as “failed”.
The value for “MIPFDYIVEKTVSTGVLVDVIGALLEVGNLTEDYRGLKLPFKIMDQYKEVLQCEAHNDQALEFQRFFQRLTGPQNVIALVSWRLSGIYKLKTLSNDPISKVIANPDIPEVEEIRVVVY” was “failed”; that for “MQTLIIVAHPELARSNTQPFFKAAIENFSNVTWHPLVADFNVEQEQSLLLQNDRIILEFPLYWYSAPALLKQWMDTVMTTKFATGHQYALEGKELGIVVSTGDNGNAFQAGAAEKFTISELMRPFEAFANKTKMMYLPILAVHQFLYLEPDAQQRLLVAYQQYATNVGAGHFKDLEHHHHHH” was “not failed”.
For the sequence “LETSSYLNVLVNSQWKSRWCSVRDNHLHFYQDRNRSKVAQQPLSLVGCEVVPDPSPDHLYSFRILHKGEELAKLEAKSSEEMGHWLGLLLSESG”, the protein production entry is recorded as “not failed”.
With “DDFEDSLEYLEPLDHDAYIVRLNFTGENTTEPIISYMTKTHNIDVNILEADIKNTKNGSLGFLVIHIPHISEEHFKQFKHNLHEQHVNVEVLKHG”, the protein production result is listed as “not failed”.
